In paper PMC10256812:

Molecular target: T1, FLAG-tagged androgen receptor (AR), P10275
T1 chain: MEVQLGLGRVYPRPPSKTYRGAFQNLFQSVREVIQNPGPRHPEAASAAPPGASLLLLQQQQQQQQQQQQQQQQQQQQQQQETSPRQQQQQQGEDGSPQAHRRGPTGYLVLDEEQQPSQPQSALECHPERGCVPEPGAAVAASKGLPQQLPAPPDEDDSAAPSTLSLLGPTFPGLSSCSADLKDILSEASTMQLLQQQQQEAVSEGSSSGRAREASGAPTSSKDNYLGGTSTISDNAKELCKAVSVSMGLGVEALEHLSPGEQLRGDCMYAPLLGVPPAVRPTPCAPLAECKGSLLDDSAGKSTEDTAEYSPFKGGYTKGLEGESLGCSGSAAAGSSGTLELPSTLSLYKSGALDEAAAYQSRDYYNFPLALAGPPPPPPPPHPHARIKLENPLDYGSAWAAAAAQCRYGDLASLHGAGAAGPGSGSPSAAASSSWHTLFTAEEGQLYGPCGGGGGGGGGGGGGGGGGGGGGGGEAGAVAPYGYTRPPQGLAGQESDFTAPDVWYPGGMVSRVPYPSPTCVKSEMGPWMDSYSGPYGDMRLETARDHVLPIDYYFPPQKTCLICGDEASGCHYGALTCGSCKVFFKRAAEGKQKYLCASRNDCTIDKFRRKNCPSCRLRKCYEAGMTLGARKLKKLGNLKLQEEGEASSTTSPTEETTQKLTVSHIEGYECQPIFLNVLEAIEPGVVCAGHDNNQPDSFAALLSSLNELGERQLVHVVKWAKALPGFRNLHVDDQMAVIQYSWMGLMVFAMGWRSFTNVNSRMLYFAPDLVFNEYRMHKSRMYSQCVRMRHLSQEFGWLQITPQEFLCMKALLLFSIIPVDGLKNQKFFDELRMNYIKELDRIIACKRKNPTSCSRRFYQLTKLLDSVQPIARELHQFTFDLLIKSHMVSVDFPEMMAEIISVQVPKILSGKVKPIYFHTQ
Assay: co-immunoprecipitation (Ni-NTA pull-down of His-SREBF1, immunoblot with FLAG antibody), band quantification
Conditions: chain shown with the change, HEK293T cells

response (+ DHT, parent: 0.9): 3.7 | response (without DHT, parent: 0.1): 0.3
B1: His-tagged SREBF1 (wild type), expressed in HEK293T cells, P36956 Y673A; Y951A (protein)
chain: MDEPPFSEAALEQALGEPCDLDAALLTDIEDMLQLINNQDSDFPGLFDPPYAGSGAGGTDPASPDTSSPGSLSPPPATLSSSLEAFLSGPQAAPSPLSPPQPAPTPLKMYPSMPAFSPGPGIKEESVPLSILQTPTPQPLPGALLPQSFPAPAPPQFSSTPVLGYPSPPGGFSTGSPPGNTQQPLPGLPLASPPGVPPVSLHTQVQSVVPQQLLTVTAAPTAAPVTTTVTSQIQQVPVLLQPHFIKADSLLLTAMKTDGATVKAAGLSPLVSGTTVQTGPLPTLVSGGTILATVPLVVDAEKLPINRLAAGSKAPASAQSRGEKRTAHNAIEKRYRSSINDKIIELKDLVVGTEAKLNKSAVLRKAIDYIRFLQHSNQKLKQENLSLRTAVHKSKSLKDLVSACGSGGNTDVLMEGVKTEVEDTLTPPPSDAGSPFQSSPLSLGSRGSGSGGSGSDSEPDSPVFEDSKAKPEQRPSLHSRGMLDRSRLALCTLVFLCLSCNPLASLLGARGLPSPSDTTSVYHSPGRNVLGTESRDGPGWAQWLLPPVVWLLNGLLVLVSLVLLFVYGEPVTRPHSGPAVYFWRHRKQADLDLARGDFAQAAQQLWLALRALGRPLPTSHLDLACSLLWNLIRHLLQRLWVGRWLAGRAGGLQQDCALRVDASASARDAALVAHKLHQLHTMGKHTGGHLTATNLALSALNLAECAGDAVSVATLAEIYVAAALRVKTSLPRALHFLTRFFLSSARQACLAQSGSVPPAMQWLCHPVGHRFFVDGDWSVLSTPWESLYSLAGNPVDPLAQVTQLFREHLLERALNCVTQPNPSPGSADGDKEFSDALGYLQLLNSCSDAAGAPAYSFSISSSMATTTGVDPVAKWWASLTAVVIHWLRRDEEAAERLCPLVEHLPRVLQESERPLPRAALHSFKAARALLGCAKAESGPASLTICEKASGALQDSLATTPASSSIDKAVQLFLCDLLLVVRTSLWRQQQPPAPAPAAQGTSSRPQASALELRGFQRDLSSLRRLAQSFRPAMRRVFLHEATARLMAGASPTRTHQLLDRSLRRRAGPGGKGGAVAELEPRPTRREHAEALLLASCYLPPGFLSAPGQRVGMLAEAARTLEKLGDRRLLHDCQQMLMRLGGGTTVTSS
